Data from article PMC8649396.

Columns and labels:
[1] = target: Rieske oxygenase from Cupriavidus metallidurans CH34 (RO_CH34) (Cupriavidus metallidurans CH34); experiment: crystal structure
[2] = target: Rieske oxygenase from Cupriavidus metallidurans CH34 (RO_CH34) (Cupriavidus metallidurans CH34); experiment: SEC
[3] = target: Phthalate dioxygenase from Comamonas testosteroni KF1 (PDOKF1), as crystallised (Comamonas testosteroni KF1); experiment: crystal structure
[4] = target: His-tagged phthalate dioxygenase from Comamonas testosteroni KF1 (Ht-PDOKF1) (Comamonas testosteroni KF1); experiment: SEC

## Rieske oxygenase from Cupriavidus metallidurans CH34 (RO_CH34) (enzyme)
[1]
  stoichiometry N: 3
[2]
  stoichiometry N: 3

## Phthalate dioxygenase from Comamonas testosteroni KF1 (PDOKF1), as crystallised (enzyme)
[3]
  stoichiometry N: 6

## His-tagged phthalate dioxygenase from Comamonas testosteroni KF1 (Ht-PDOKF1) (enzyme)
[4]
  stoichiometry N: 6
